The target in assay [1] is T1, human TGF-βRII on cells (SBE-bla HEK 293T cells; A549 cells) (human, UniProt P37173 23-567). Description: cell-based or functional assay.
Assay [2] has as its target T2, mouse TGF-βRII on MC3T3-E1 cells (mouse osteoblasts) (mouse, UniProt Q62312 24-567).
T2 sequence (looked up): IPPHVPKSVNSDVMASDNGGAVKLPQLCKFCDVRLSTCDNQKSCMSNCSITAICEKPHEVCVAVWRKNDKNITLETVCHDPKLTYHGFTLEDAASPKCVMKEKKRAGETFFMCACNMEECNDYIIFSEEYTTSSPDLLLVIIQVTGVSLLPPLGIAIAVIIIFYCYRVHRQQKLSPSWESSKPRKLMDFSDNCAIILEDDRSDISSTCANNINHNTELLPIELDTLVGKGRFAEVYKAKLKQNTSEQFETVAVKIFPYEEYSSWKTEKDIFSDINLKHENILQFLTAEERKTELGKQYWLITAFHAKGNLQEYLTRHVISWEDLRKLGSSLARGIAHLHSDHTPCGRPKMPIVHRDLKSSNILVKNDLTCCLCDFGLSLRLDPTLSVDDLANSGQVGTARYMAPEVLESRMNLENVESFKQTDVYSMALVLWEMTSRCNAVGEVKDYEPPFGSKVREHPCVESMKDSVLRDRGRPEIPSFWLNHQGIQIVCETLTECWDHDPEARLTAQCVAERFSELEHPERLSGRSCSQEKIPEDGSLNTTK
Description: cell-based or functional assay.

The target of assay [3] is T1, human TGF-βRII on cells (SBE-bla HEK …). In words: cell-based or functional assay. This is another data set of the same source.
Assay [4] shares this target. Description: cell-based or functional assay. This is another data set of the same source.
Assay [5] has as its target T3, recombinant human TGF-β RII/Fc chimera protein (human, UniProt P37173 24-159).
T3 construct: range 24-159; Made in HEK-F cells; Biotinylated where it was put on SA chips, otherwise captured by anti-human IgG; also called human TGFbRII/Fc; hRII-Fc; not shown: Fc region of human IgG1
Description: SPR Biacore, purified dAb; antigen taken as human TGF-β RII/Fc.

The target in assay [6] is T3, recombinant human TGF-β RII/Fc chimera …. Description: SPR Biacore A100, antigen-Fc captured by anti-human IgG, purified dAb, 1:1 model. As for the experimental part:
BIACORE™ A100 analysis was carried out using a capture surface on a CM5 chip. Anti-human IgG was used as the capturing agent and coupled to a CM5 biosensor chip by primary amine coupling. The Antigen molecule fused to the human Fc was captured on this immobilised surface to a level from 200 to 300 resonance units and supernatants or purified domain antibodies were passed over this captured surface. An injection of media or buffer over the captured antigen surface was used for double referencing. On each flow cell, a protein A spot allowed to confirm the presence of domain antibody on each sample injected. […] All runs were carried out at 25° C. using HBS-EP buffer as running buffer. Data were generated using the BIACORE™ A100 and analyzed using its inherent software. Kinetics from purified samples were fitted to the 1:1 binding model while supernatant off-rates were analyzed using the 1:1 dissociation model and/or using the binding level and the stability level of each sample in comparison to the parent molecule.
A selection of mutants with improved off-rate were purified and subjected to full BIACORE™ A100 kinetic analysis to determine their affinity (Table 10). The thermal stability of the mutants was also determined by generation of melting profiles in the presence of SYPRO™ Orange (Invitrogen). Briefly, the purified dAbs were diluted to 50 and 100 ug/ml in a 1:500 dilution of SYPRO™ Orange in PBS, and subjected to a 30-90° C. melt curve in a Mini OPTICON™ PCR machine (BioRad). The Tm of the major positive transition was determined at each concentration and used to calculate an estimated Tm value at 1 mg/ml as an indication of the melting temperature for comparison (Table 10).

Assay [7] shares this target. In words: SPR Biacore, human TGFbRII-FC, 1:1 model.

T3 sequence (P37173 24-159 limits assumed, change not shown): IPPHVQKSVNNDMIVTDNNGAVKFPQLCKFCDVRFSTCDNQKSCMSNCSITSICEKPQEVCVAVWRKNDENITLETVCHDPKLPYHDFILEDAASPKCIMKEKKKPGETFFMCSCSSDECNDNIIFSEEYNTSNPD
T1 sequence (P37173 23-567): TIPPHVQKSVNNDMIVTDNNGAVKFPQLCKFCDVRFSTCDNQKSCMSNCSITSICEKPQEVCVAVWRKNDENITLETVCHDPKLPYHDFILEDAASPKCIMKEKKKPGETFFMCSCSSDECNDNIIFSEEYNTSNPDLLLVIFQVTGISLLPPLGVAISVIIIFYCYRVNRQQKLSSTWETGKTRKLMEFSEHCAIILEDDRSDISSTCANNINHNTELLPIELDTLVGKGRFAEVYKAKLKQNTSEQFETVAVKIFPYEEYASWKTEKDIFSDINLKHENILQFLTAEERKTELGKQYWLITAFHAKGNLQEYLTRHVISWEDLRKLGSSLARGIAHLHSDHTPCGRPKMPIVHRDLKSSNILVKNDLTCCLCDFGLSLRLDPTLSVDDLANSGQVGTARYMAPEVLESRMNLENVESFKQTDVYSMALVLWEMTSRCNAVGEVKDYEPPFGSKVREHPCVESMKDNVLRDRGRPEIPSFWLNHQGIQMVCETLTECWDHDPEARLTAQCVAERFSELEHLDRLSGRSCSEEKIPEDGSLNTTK

B1: DOM23h-352 (VHH, not shown: small tags and cut ends)
VHH: EVQLLESGGGLVQPGGSLRLSCAASGFTFDKYKMAWVRQAPGKGLEWVSLIFPNGVPTYYANSVKGRFTISRDNSKNTLYLQMNSLRAEDTAVYYCAKYSGQGRDFDYWGQGTLVTVSS
In the case of B1, the “max % inhibition, Average (SBE-bla HEK CELLSENSOR assay, h2)” value in assay [1] is 46.7%. In addition, the “max % inhibition, Average (Mouse 3T3 cell assay, method m2)” value in assay [2] was found to be 48%.

B2: DOM23m-71 (VHH, not shown: small tags and cut ends)
VHH: EVQLLESGGGLVQPGGSLRLSCAASGFTFMDYRMYWVRQAPGKGLEWVSGIDPTGLRTYYADSVKGRFTISRDNSKNTLYLQMNSLRAEDTAVYYCAKIKWGEMGSYKTFDYWGQGTLVTVSS
As to B2, the “max % inhibition, Average (Human IL-11 release, h1)” value in assay [1] is -2%. Moreover, the “max % inhibition, Average (Mouse 3T3 cell assay, method m1)” value in assay [2] is 44.9%.

B3: DOM23h-843 (VHH)
VHH: EVQLLESGGGLVQPGGSLRLSCAASGFTFDQDRMWWVRQAPGKGLEWVSAIESGGHRTYYADSVKGRFTISRDNSKNTLYLQMNSLRAEDTAVYYCAKQNESGRSGFDYWGQGTLVTVSS
notes: human VH domain antibody (dAb), naive lead; parent of DOM23h-843-13; not shown: C-terminal FLAG tag from vector pDOM10
Take B3: the “IC50 nM, Mean (SBE-bla HEK 293T cell sensor assay, h2)” value in assay [3] was > 9010 nM. For the same molecule, the “Mean IC50 (nM), SBE-bla HEK 293T Cell Sensor assay (h2)” value (“Mean IC50 (nM)” for short) in assay [4] was 1950 nM. In addition, in assay [5], the dissociation constant (Kd) is 378 nM, the koff stood at 0.343 s⁻¹ and the kon is 905000 M⁻¹ s⁻¹.

B4: DOM23m-4 (VHH, not shown: small tags and cut ends)
VHH: EVQLLESGGGLVQPGGSLRLSCAASGFTFTTYGMGWVRQAPGKGLEWVSWIEKTGNKTYYADSVKGRFTISRDNSKNTLYLQMNSLRAEDTAVYYCAKAGRHIKVRSRDFDYWGQGTLVTVSS
Regarding B4, in assay [1], the “max % inhibition, Average (Human IL-11 release, h1)” value worked out at 70.7% and the “max % inhibition, Average (SBE-bla HEK CELLSENSOR assay, h2)” value was 69%. Moreover, in assay [2], the “max % inhibition, Average (Mouse 3T3 cell assay, method m1)” value worked out at 73.3%.

B5: DOM23m-32 (VHH, not shown: small tags and cut ends)
VHH: EVQLLESGGGLVQPGGSLRLSCAASGFTFFEYPMGWVRQAPGKGLEWVSVISGDGQRTYYADSVKGRFTISRDNSKNTLYLQMNSLRAEDTAVYYCAKSHTGTVRHLETFDYWGQGTLVTVSS
Consider B5, for which the “max % inhibition, Average (Mouse 3T3 cell assay, method m1)” value in assay [2] came to 39.7%.

B6: DOM23m-99 (VHH, not shown: small tags and cut ends)
VHH: EVQLLESGGGLVQPGGSLRLSCAASGFTFDRYRMMWVRQAPGKGLEWVSTIDPAGMLTYYADSVKGRFTISRDNSKNTLYLQMNSLRAEDTAVYYCAKRLASRSHFDYWGQGTLVTVSS
For the molecule B6, the “max % inhibition, Average (Mouse 3T3 cell assay, method m2)” value in assay [2] turned out to be 46.5%.

B7: DOM23m-81 (VHH, not shown: small tags and cut ends)
VHH: EVQLLESGGGLVQPGGSLRLSCAASGFTFEPVIMGWVRQAPGKGLEWVSAIEARGGGTYYADSVKGRFTISRDNSKNTLYLQMNSLRAEDTAVYYCAKPGRHLSQDFDYWGQGTLVTVSS
Turning to B7, the “max % inhibition, Average (Mouse 3T3 cell assay, method m2)” value in assay [2] came out at 30.3%.

B8: DOM23h-271 mutant 3D9 (K at 61, G at 64) (VHH, name in Kabat numbering)
VHH: EVQLLESGGGLVQPGGSLRLSCAASGFTFTEYRMWWVRQAPGKGLEWVSAIEPIGNRTYYAKSVGGRFTISRDNSKNTLYLQMNSLRAEDTAVYYCAKQIPGRKWTANSRFDYWGQGTLVTVSS
notes: human VH dAb; expressed from pDOM13; also called KG
As to B8, in assay [6], the Kd was 4.34 nM.

B9: DOM23h-271 mutant 3F11 (R at 61, E at 64) (VHH, name in Kabat numbering)
VHH: EVQLLESGGGLVQPGGSLRLSCAASGFTFTEYRMWWVRQAPGKGLEWVSAIEPIGNRTYYARSVEGRFTISRDNSKNTLYLQMNSLRAEDTAVYYCAKQIPGRKWTANSRFDYWGQGTLVTVSS
notes: human VH dAb; expressed from pDOM13; also called RE
On to B9, for which the Kd in assay [6] is 3.27 nM.

B10: DOM23h-271-27 (VHH)
VHH: EVQLLESGGGLVQPGGSLRLSCAASGFTFTEYRMWWVRQAPGKGLEWVSAIEPIGQKTYYADSVKGRFTISRDNSKNTLYLQMNSLRAEDTAVYYCAKQIPGRKWTANSRFDYWGQGTLVIVSS
notes: human VH dAb from DNA display; expressed from pDOM13
As to B10, in assay [7], the Kd worked out at 0.578 nM, the koff was 0.00126 s⁻¹ and the kon came to 2.17e+06 M⁻¹ s⁻¹.

B11: DOM23h-271-21 (VHH)
VHH: EVQLLESGGGLVQPGGSLRLSCAASGFTFTEYRMWWVRQAPGKGLEWVSAIEPIGNRTYYADSVKGRFTISRDNSKNTLYLQMNSLRAEDTAVYYCAKQMPGRKWTAKFRWDYWGQGTLVIVSS
notes: as for B10
As for B11, in assay [7], the Kd was 0.147 nM, the koff is 0.000472 s⁻¹ and the kon came to 3.21e+06 M⁻¹ s⁻¹.

B12: DOM23m-72 (VHH, not shown: small tags and cut ends)
VHH: EVQLLESGGGLVQPGGSLRLSCAASGFTFMDYDMSWVRQAPGKGLEWVSMIREDGGKTYYADSVKGRFTISRDNSKNTLYLQMNSLRAEDTAVYYCAKARVPYRRGHRDNFDYWGQGTLVTVSS
Take B12: in assay [1], the “max % inhibition, Average (Human IL-11 release, h1)” value is 1.7%. Besides, the “max % inhibition, Average (Mouse 3T3 cell assay, method m1)” value in assay [2] stood at 17.5%.

B13: DOM23h-855 (VHH)
VHH: EVQLLESGGGLVQPGGSLRLSCAASGFTFENTSMGWVRQAPGKGLEWVSRIDPKGSHTYYADSVKGRFTISRDNSKNTLYLQMNSLRAEDTAVYYCAKQRELGKSHFDYWGQGTLVTVSS
notes: human VH domain antibody (dAb), naive lead; parent of DOM23h-855-21; not shown: C-terminal FLAG tag from vector pDOM10
Turning to B13, in assay [3], the “IC50 nM, Mean (SBE-bla HEK 293T cell sensor assay, h2)” value is > 4470 nM. Besides, the “Mean IC50 (nM)” value in assay [4] was > 25000 nM. In addition, in assay [5], the Kd was found to be 941 nM, the koff was determined as 0.315 s⁻¹ and the kon was 335000 M⁻¹ s⁻¹.

B14: DOM23m-29 (VHH, not shown: small tags and cut ends)
VHH: EVQLLESGGGLVQPGGSLRLSCAASGFTFKRYSMGWVRQAPGKGLEWVSVINDLGSLTYYADSVKGRFTISRDNSKNTLYLQMNSLRAEDTAVYYCAKGNISMVRPGSWFDYWGQGTLVTVSS
In the case of B14, in assay [2], the “max % inhibition, Average (Mouse 3T3 cell assay, method m1)” value amounted to 54.2%.

B15: DOM23h-439 (VHH)
VHH: EVQLLESGGGLVQPGGSLRLSCAASGFTFGTEQMWWVRQAPGKGLEWVSRIDSPGGRTYYADSVKGRFTISRDNSKNTLYLQMNSLRAEDTAVYYCAKRHAAGVSGTYFDYWGQGTLVTVSS
Regarding B15, the “Mean IC50 (nM)” value in assay [4] came to 3570 nM. In assay [5], the Kd came out at 24.2 nM, the off-rate (koff) worked out at 0.0502 s⁻¹ and the kon was determined as 2.08e+06 M⁻¹ s⁻¹.

B16: DOM23m-62 (VHH, not shown: small tags and cut ends)
VHH: EVQLLESGGGLVQPGGSLRLSCAASGFTFGQESMYWVRQAPGKGLEWVSAISGSGGSTYYADSVKGRFTISRDNSKNTLYLQMNSLRAEDTAVYYCAKSGTRIKQGFDYWGQGTLVTVSS
With B16, the “max % inhibition, Average (Human IL-11 release, h1)” value in assay [1] is 79%. Further, the “max % inhibition, Average (Mouse 3T3 cell assay, method m1)” value in assay [2] was determined as 78.6%.

B17: DOM23m-101 (VHH, not shown: small tags and cut ends)
VHH: EVQLLESGGGLVQPGGSLRLSCAASGFTFSEYDMAWVRQAPGKGLEWVSRIRSDGVRTYYADSVKGRFTISRDNSKNTLYLQMNSLRAEDTAVYYCAKDRAKNGWFDYWGQGTLVTVSS
As for B17, in assay [1], the “max % inhibition, Average (SBE-bla HEK CELLSENSOR assay, h2)” value was found to be 59.8%. Also, the “max % inhibition, Average (Mouse 3T3 cell assay, method m2)” value in assay [2] is 48%.

These data come from patent US20150361176A1 (GlaxoSmithKline, published 2015).
